± gives the standard deviation of the averaged measurements.
Tested on: ATP
Test: switch fluorescence ratio, 500 uM ATP over buffer (Cy3 cluster intensity, sum of 5 cycles each) (fold (ratio)); higher = stronger signal-on switching upon ATP binding; sequences stand for … in TCGTCGGCAGCGTCAGATGTGTATAAGAGACAGTTTTTTTTTTTTTTTTTTTTTTTTT…TC
Details: aptamer strand: ATP DNA aptamer (quencher-CACCTGGGGGAGTATTGCGGAGGAAGG + anchor), 100 nM annealed; ATP concentration: 500 uM
In short: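 Clusters carrying Cy3-labelled switching strands on a modified Illumina MiSeq flow-cell were annealed to 100 nM quencher-labelled ATP aptamer and imaged in selection buffer. They were imaged again after 15 min with 500 uM ATP at 22 °C, over five buffer/ATP cycles with NaOH stripping and re-annealing in between. For each cluster, the fluorescence ratio is the summed Cy3 intensity of the target cycles divided by that of the buffer cycles, averaged per switch-domain sequence. Clusters outside 100-1000 RFU were left out.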
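Further: ATP exposure 15 min at 22 °C before imaging.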

GACTGCTACT
switch fluorescence ratio: 1.51 ± 0.028

CTTTGTCTGA
switch fluorescence ratio: 1.022 ± 0.0085

GTAGGAGGGG
switch fluorescence ratio: 0.985 ± 0.011

GAATTCACGG
switch fluorescence ratio: 1.06 ± 0.038

TTTGTGTAAA
switch fluorescence ratio: 1 ± 0.032

CTTGAAGTTA
switch fluorescence ratio: 1 ± 0.011

CATCCGGCCG
switch fluorescence ratio: 1.194 ± 0.0019

CTCTATATTG
switch fluorescence ratio: 1.008 ± 0.0073

CTGGATGTTA
switch fluorescence ratio: 0.999 ± 0.024

GATAAATTTT
switch fluorescence ratio: 0.974 ± 0.023

AGACGGTTTG
switch fluorescence ratio: 1.01 ± 0.017

ATAGAATGTG
switch fluorescence ratio: 1.007 ± 0.0082

ATGTAGTAGT
switch fluorescence ratio: 1 ± 0.034

ATTAGTAGCA
switch fluorescence ratio: 1 ± 0.014

TAGGCTACGG
switch fluorescence ratio: 1.03 ± 0.014

TGACGTGTTG
switch fluorescence ratio: 1.02 ± 0.083

ATCGTTCTGC
switch fluorescence ratio: 1.1 ± 0.019

TTGATGGGTA
switch fluorescence ratio: 1.01 ± 0.032

AGATTTAAGT
switch fluorescence ratio: 0.985 ± 0.022

CATTATAGCG
switch fluorescence ratio: 0.991 ± 0.023

TGGACCGGGG
switch fluorescence ratio: 1.016 ± 0.0034

TATGTAAGGG
switch fluorescence ratio: 1.01 ± 0.026

GAAAAAAGCG
switch fluorescence ratio: 1.01 ± 0.041

GGTATCGGTA
switch fluorescence ratio: 1.005 ± 0.0094

ATAGTGGGGG
switch fluorescence ratio: 0.975 ± 0.017

TGGGGTACCT
switch fluorescence ratio: 1.08 ± 0.077

CCTATGGGGT
switch fluorescence ratio: 0.974 ± 0.024

ATGTATAGGC
switch fluorescence ratio: 0.962 ± 0.06

TTGTTTAGGG
switch fluorescence ratio: 0.999 ± 0.049

CAGAAGGGAG
switch fluorescence ratio: 0.98 ± 0.01

TCGGGGCCAA
switch fluorescence ratio: 0.991 ± 0.019

TGATTCTAGC
switch fluorescence ratio: 0.972 ± 0.011

CGCTAATCAA
switch fluorescence ratio: 1.09 ± 0.042

AAGGGCTCGG
switch fluorescence ratio: 1.07 ± 0.14

TTGGCATGGG
switch fluorescence ratio: 0.99 ± 0.015

CGGACACGTT
switch fluorescence ratio: 0.983 ± 0.052

TTTCACAAGG
switch fluorescence ratio: 0.9836 ± 0.0089

GGTCCTGGAC
switch fluorescence ratio: 1.02 ± 0.019

TTTGCATATA
switch fluorescence ratio: 1.09 ± 0.11

GGTGATACAG
switch fluorescence ratio: 1.003 ± 0.0051

CTTGATGTAA
switch fluorescence ratio: 1 ± 0.064

GTTCGTTAGC
switch fluorescence ratio: 0.988 ± 0.004

TTTTCAACTA
switch fluorescence ratio: 0.9949 ± 0.0024

CAGAATGCGG
switch fluorescence ratio: 0.991 ± 0.023

AGGTAGTGTC
switch fluorescence ratio: 1.03 ± 0.023

TGAATATTTT
switch fluorescence ratio: 0.9787 ± 0.0076

ACGGTTGTTT
switch fluorescence ratio: 1.0154 ± 0.00077

GATCATCAGG
switch fluorescence ratio: 1 ± 0.012

AAGCAGGGGG
switch fluorescence ratio: 0.995 ± 0.018

GGGTGGTGTT
switch fluorescence ratio: 1.01 ± 0.021

AGATCGGATA
switch fluorescence ratio: 1.01 ± 0.024

TGGAGATTGG
switch fluorescence ratio: 0.969 ± 0.023

TTGATATAGT
switch fluorescence ratio: 0.9993 ± 0.0073

ATTTATGGTG
switch fluorescence ratio: 0.973 ± 0.031

AAGCTAATGT
switch fluorescence ratio: 1.061 ± 0.0089

AAACATAGGA
switch fluorescence ratio: 0.992 ± 0.063

AGGTTTTTTG
switch fluorescence ratio: 0.995 ± 0.016

ACGTACATGT
switch fluorescence ratio: 1.44 ± 0.018

ACGGCAGGAA
switch fluorescence ratio: 1.04 ± 0.043

TACTGGTGAC
switch fluorescence ratio: 1.06 ± 0.012

CCCATAGTAT
switch fluorescence ratio: 1.01 ± 0.058

TATCGGTTGG
switch fluorescence ratio: 1.044 ± 0.0086

GGGGATATGA
switch fluorescence ratio: 0.995 ± 0.049

ATTGACTTTT
switch fluorescence ratio: 1 ± 0.025

GGGACTGGGG
switch fluorescence ratio: 1.02 ± 0.061

TTTAGGTCTA
switch fluorescence ratio: 0.978 ± 0.019

AGGGCAAACG
switch fluorescence ratio: 1.05 ± 0.0075

CTCAGGGATT
switch fluorescence ratio: 1.07 ± 0.033

AAACTATGGA
switch fluorescence ratio: 0.961 ± 0.022

TTTTAAAGGC
switch fluorescence ratio: 1.02 ± 0.031

TTGAGGTATA
switch fluorescence ratio: 0.987 ± 0.025

GGGGCGTGGG
switch fluorescence ratio: 0.963 ± 0.042

GCCAGCCGTT
switch fluorescence ratio: 1.014 ± 0.0038

ATAATATAAC
switch fluorescence ratio: 1 ± 0.018

CAAAAGTTGT
switch fluorescence ratio: 0.992 ± 0.043

ACGGCCGGGG
switch fluorescence ratio: 1.04 ± 0.027

TGGCCACTT
switch fluorescence ratio: 0.986 ± 0.023

ATACTGGACT
switch fluorescence ratio: 1.201 ± 0.0084

GCTTTTCAGC
switch fluorescence ratio: 1.01 ± 0.038

GTGTCTGAGC
switch fluorescence ratio: 0.966 ± 0.031

TTTTTCGGCC
switch fluorescence ratio: 0.979 ± 0.026

GGTGAATGGG
switch fluorescence ratio: 1.01 ± 0.032

CAAGGTTGAA
switch fluorescence ratio: 0.9902 ± 0.0079

GCAAGTTGGG
switch fluorescence ratio: 1.01 ± 0.028

CGTCAGCGAA
switch fluorescence ratio: 1.18 ± 0.039

TATTAAAAGA
switch fluorescence ratio: 0.99 ± 0.03

ATGTCCGAGG
switch fluorescence ratio: 1.028 ± 0.0019

GATTAACGCT
switch fluorescence ratio: 1.03 ± 0.026

CTGGGGGCCG
switch fluorescence ratio: 0.979 ± 0.054

AAATTTTGTT
switch fluorescence ratio: 0.987 ± 0.021

TGGGGAGGTT
switch fluorescence ratio: 0.97 ± 0.044

TTCTGGTAGG
switch fluorescence ratio: 1 ± 0.025

TCGGATAGGT
switch fluorescence ratio: 1.02 ± 0.025

AAGAGATTTT
switch fluorescence ratio: 0.986 ± 0.012

TTAGTTACGG
switch fluorescence ratio: 0.999 ± 0.019

CGGTGGCGTC
switch fluorescence ratio: 1.01 ± 0.048

TGTGAAAGAC
switch fluorescence ratio: 1.044 ± 0.003

AGTAAAGATT
switch fluorescence ratio: 0.9995 ± 0.0041

AAAATGATGG
switch fluorescence ratio: 1 ± 0.0073

ACATGGGGGA
switch fluorescence ratio: 1.02 ± 0.0082

GTATATATAT
switch fluorescence ratio: 0.979 ± 0.028

CGGATACGGT
switch fluorescence ratio: 0.997 ± 0.04

CGTTTGAACT
switch fluorescence ratio: 1.025 ± 0.0094

GCATGGGGTG
switch fluorescence ratio: 1.069 ± 0.0081

GACAGTGTGG
switch fluorescence ratio: 0.997 ± 0.049

TGCTGCTAGC
switch fluorescence ratio: 0.985 ± 0.036

CCGGTTTGGG
switch fluorescence ratio: 0.988 ± 0.042

TAGCGCTCTA
switch fluorescence ratio: 0.999 ± 0.024

AGATGTCGTT
switch fluorescence ratio: 0.997 ± 0.039

GTTTTCGGCG
switch fluorescence ratio: 0.981 ± 0.035

GCTATACGAT
switch fluorescence ratio: 2.17 ± 0.18

GCGGGGGGCA
switch fluorescence ratio: 1.03 ± 0.055

CAATGTTAGA
switch fluorescence ratio: 1 ± 0.014

CTTTTTTTTT
switch fluorescence ratio: 1.02 ± 0.063

GGGATGTAAG
switch fluorescence ratio: 0.966 ± 0.027

GGTCTTTAGG
switch fluorescence ratio: 0.99184 ± 0.00074

AACCTCTATT
switch fluorescence ratio: 1.03 ± 0.015

CATTGGACGT
switch fluorescence ratio: 1.029 ± 0.0063

CGAGTCAGTT
switch fluorescence ratio: 0.992 ± 0.029

TTTTATGCGT
switch fluorescence ratio: 0.993 ± 0.033

TTGGGAAAGT
switch fluorescence ratio: 0.995 ± 0.017

TTCGTTATGT
switch fluorescence ratio: 0.98 ± 0.027

CTGCTTGGGA
switch fluorescence ratio: 1.012 ± 0.0033

GGTTCTGATC
switch fluorescence ratio: 0.981 ± 0.01

AGGAATTCCG
switch fluorescence ratio: 0.992 ± 0.054

GATTGTCCGT
switch fluorescence ratio: 0.981 ± 0.031

TGCGGGGTTA
switch fluorescence ratio: 0.986 ± 0.024

GATGCTGTGG
switch fluorescence ratio: 0.958 ± 0.003

GGGGGGACGG
switch fluorescence ratio: 0.969 ± 0.04

TAGGGGAGGG
switch fluorescence ratio: 1.03 ± 0.041

TGCTTTTTGG
switch fluorescence ratio: 1.01 ± 0.032

CAAGAATGCG
switch fluorescence ratio: 1 ± 0.034

AAGTCCTGCC
switch fluorescence ratio: 1.26 ± 0.081

CGTGAGAAAG
switch fluorescence ratio: 1 ± 0.018

AGGGGATAGG
switch fluorescence ratio: 0.98 ± 0.046

GCGGCTGCTG
switch fluorescence ratio: 1.04 ± 0.062

ATGTGTTGCG
switch fluorescence ratio: 1 ± 0.045

GTTTGCTGGT
switch fluorescence ratio: 1 ± 0.015

ATATTATTGT
switch fluorescence ratio: 0.9911 ± 0.0085

ACGCCGGCGA
switch fluorescence ratio: 0.9729 ± 0.002

TTGGTGCTGT
switch fluorescence ratio: 1.01 ± 0.017

GTGGGTTGGG
switch fluorescence ratio: 1.09 ± 0.058

TTTGAAGTTG
switch fluorescence ratio: 0.992 ± 0.029

ATGGCTGGGT
switch fluorescence ratio: 0.971 ± 0.029

GCTTACGGTG
switch fluorescence ratio: 1.01 ± 0.02

AGGAGATGTA
switch fluorescence ratio: 1.029 ± 0.0061

GCTGGGGTAT
switch fluorescence ratio: 0.984 ± 0.015

ATCGCATGTC
switch fluorescence ratio: 1.23 ± 0.094

AATCAGAGCG
switch fluorescence ratio: 1.021 ± 0.0021

TAGGGGGGGC
switch fluorescence ratio: 0.978 ± 0.022

CAATAACTGG
switch fluorescence ratio: 1.01 ± 0.015

CTGTTATTTT
switch fluorescence ratio: 0.974 ± 0.03

AGGTCGCCTG
switch fluorescence ratio: 1.031 ± 0.0069

CAGCAGAGGG
switch fluorescence ratio: 1.01 ± 0.01

TTGCATGATG
switch fluorescence ratio: 0.9611 ± 0.0076

TTGTGTTAGT
switch fluorescence ratio: 0.958 ± 0.01

GGAAGGGATT
switch fluorescence ratio: 1.05 ± 0.08

AAAAAAAGAT
switch fluorescence ratio: 1.01 ± 0.039

AGAAATTGGT
switch fluorescence ratio: 1.02 ± 0.029

TTTTAAGCCG
switch fluorescence ratio: 1.01 ± 0.069

CAGGTGTGGC
switch fluorescence ratio: 1.11 ± 0.013

CTATTATGTG
switch fluorescence ratio: 0.985 ± 0.043

TGAAGTTCGG
switch fluorescence ratio: 1.06 ± 0.025

GTTAGAAGGT
switch fluorescence ratio: 1 ± 0.018

TCCTGGGGGA
switch fluorescence ratio: 1.15 ± 0.22

AATAAACGCT
switch fluorescence ratio: 1.04 ± 0.074

TGGTTCACGT
switch fluorescence ratio: 1 ± 0.024

TTACGAAGGG
switch fluorescence ratio: 1.012 ± 0.0045

GAATGGGAGG
switch fluorescence ratio: 0.975 ± 0.02

TCGGTACGG
switch fluorescence ratio: 1.07 ± 0.017

GGTTATCCGG
switch fluorescence ratio: 1.01 ± 0.032

TTAAGTCTTC
switch fluorescence ratio: 0.964 ± 0.039

CATTATAGAT
switch fluorescence ratio: 0.997 ± 0.021

GGTTGGCCCC
switch fluorescence ratio: 1.02 ± 0.019

GCGAGGGGGA
switch fluorescence ratio: 0.984 ± 0.046

TTGTTAACAG
switch fluorescence ratio: 0.997 ± 0.018

CAATTCAGGA
switch fluorescence ratio: 1.01 ± 0.036

AAGGATTGCG
switch fluorescence ratio: 0.96 ± 0.047

AGCCGGGTGT
switch fluorescence ratio: 1.34 ± 0.47

CGGTGAGGCT
switch fluorescence ratio: 0.984 ± 0.017

TGGGAGGGAG
switch fluorescence ratio: 0.987 ± 0.028

GCAGCCGAGT
switch fluorescence ratio: 1.013 ± 0.0098

GGTTGCAGAG
switch fluorescence ratio: 1.01 ± 0.024

TTTAGTGTAT
switch fluorescence ratio: 0.991 ± 0.04

GCCCAAGAGT
switch fluorescence ratio: 1.04 ± 0.02

TGAATATGCG
switch fluorescence ratio: 0.988 ± 0.0096

GCTTGCAAGG
switch fluorescence ratio: 0.991 ± 0.017

ATCGGGAGAG
switch fluorescence ratio: 1.05 ± 0.026

GGGTATGGGG
switch fluorescence ratio: 1.01 ± 0.031

TACATGCTGC
switch fluorescence ratio: 1.03 ± 0.022

CAAAGTAGGG
switch fluorescence ratio: 0.991 ± 0.032

GGGGTGCGGT
switch fluorescence ratio: 0.998 ± 0.017

TTTTTTTGTT
switch fluorescence ratio: 1 ± 0.034

GGCGTGATGC
switch fluorescence ratio: 1.091 ± 0.0076

ACGGGGTCCG
switch fluorescence ratio: 0.95 ± 0.03

GGTGTAGCTA
switch fluorescence ratio: 0.981 ± 0.061

GGATTATGTC
switch fluorescence ratio: 0.975 ± 0.039

GCACGTTTTT
switch fluorescence ratio: 1 ± 0.03

TAGTCTATCG
switch fluorescence ratio: 0.969 ± 0.025

ATACTATTTT
switch fluorescence ratio: 0.996 ± 0.023
